For this assay, the target named is TNF-α. Nature of the assay: cell-based or functional assay.

Consider “mouse TNFR2 Δ7 without His-tag, from clone 1145-3 transfected HeLa cells (from UniProt P25119 23-474) (receptor)”, for which the EC50, L929 cytotoxicity assay; extracellular media from 1145-3 transfected HeLa cells stood at 2.4 ng/mL.
The substance “Recombinant soluble TNFR2 (rsTNFR2) (from UniProt P25119 23-258) (receptor)” gave an EC50, L929 cytotoxicity assay (protection of L929 cells from TNF-α) of 698 ng/mL.
“mouse TNFR2 Δ7 with His-tag, from clone 1144-4 transfected HeLa cells (receptor)” displayed an EC50, L929 cytotoxicity assay; extracellular media from 1144-4 transfected HeLa cells of 2.4 ng/mL.
Etanercept (Fc fusion) yielded an EC50, L929 cytotoxicity assay (protection of L929 cells from TNF-α) of 1.1 ng/mL.
